US20180362652A1 (Biogen, published 2018)
Where two headings read alike, the source gives them in different places.

T1: monomeric huBDCA2 ectodomain (human, UniProt Q8WTT0 45-213)
T1 construct: Prepared by proteolytic cleavage of the purified muIgG2a Fc-huBDCA2 fusion protein (pEAG2423); also called human BDCA2 ectodomain; human BDCA2 ECD
T1 sequence: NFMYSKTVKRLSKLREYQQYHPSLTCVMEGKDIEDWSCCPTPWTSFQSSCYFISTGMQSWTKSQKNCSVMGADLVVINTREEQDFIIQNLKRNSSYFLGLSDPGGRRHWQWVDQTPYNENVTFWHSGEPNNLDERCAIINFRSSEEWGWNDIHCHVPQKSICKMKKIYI

T2: human BDCA2 (full-length, cell surface) (human, UniProt Q8WTT0 1-213)
T2 construct: also called huBDCA2; surface human BDCA2
T2 sequence: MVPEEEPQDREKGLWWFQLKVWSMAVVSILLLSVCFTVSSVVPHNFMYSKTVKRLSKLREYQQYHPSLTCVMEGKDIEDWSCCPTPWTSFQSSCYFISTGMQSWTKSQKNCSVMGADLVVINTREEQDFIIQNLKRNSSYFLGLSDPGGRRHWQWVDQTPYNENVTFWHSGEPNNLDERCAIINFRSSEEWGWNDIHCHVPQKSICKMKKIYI

T3: cynomolgus monkey BDCA2 (full-length, cell surface, E73 SNP form) (cynomolgus monkey, UniProt Q8WTT0 1-213 (human entry))
T3 construct: also called cyno BDCA2; surface cynomolgus monkey BDCA2
T3 chain: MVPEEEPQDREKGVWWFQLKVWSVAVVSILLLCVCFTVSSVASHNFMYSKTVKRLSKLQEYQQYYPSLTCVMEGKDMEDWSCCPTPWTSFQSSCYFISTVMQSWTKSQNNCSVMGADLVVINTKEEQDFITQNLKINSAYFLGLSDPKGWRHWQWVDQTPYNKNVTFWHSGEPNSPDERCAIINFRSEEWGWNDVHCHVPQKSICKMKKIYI


How the values were obtained:
[1] = target: T1, monomeric huBDCA2 ectodomain; experiment: Octet, mAb from conditioned medium on anti-human Fc tips, monomeric huBDCA2 in solution
Method: (§1) Backmutation to the unpaired cysteine, i.e., S95C, was constructed by site-directed mutagenesis producing plasmid pYL749. Variants S95T, S95A, and S95V were constructed by site-directed mutagenesis producing plasmids pYL750, pYL751, and pYL752, respectively. The full-length light chain cDNA sequences in the resultant plasmids were confirmed by DNA sequencing. […] Conditioned medium was harvested at 2 days post-transfection. […] Conditioned medium containing the C95 variant mAbs was assayed by Octet for binding to human BDCA2 ectodomain. Antibodies from conditioned medium from transiently transfected cells were bound to anti-human Fc tips, then monomeric huBDCA2 was flowed over the Octet tips, to examine binding and dissociation.

[2] = target: T1, monomeric huBDCA2 ectodomain; experiment: as above; remark: listed apart in the source
Method: The monomeric huBDCA2 ectodomain was prepared by proteolytic cleavage from the purified muIgG2a Fc-huBDCA2 fusion protein (relevant plasmid: pEAG2423). Antibodies from conditioned medium from transiently transfected cells were bound to anti-human Fc tips, and then monomeric huBDCA2 was flowed over the Octet tips, to examine binding and dissociation.

[3] = target: T2, human BDCA2 (full-length, cell surface); experiment: direct binding FACS, conditioned medium on CHO cells co-expressing human BDCA2 and FcεRIγ; column C (midpoint) of the printed 4-P fit, X in ng/ml; A 8.32, B 1, D 102, R^2 0.999
Method: (§2) Conditioned medium was assayed by direct binding FACS on stably transfected DG44 CHO cells co-expressing full-length BDCA2 and FcεRIγ cDNAs (human or cynomolgus monkey), (relevant expression vectors are human BDCA2/FcεRIγ: pEAG2456, cyno BDCA2/FcεRIγ: pEAG2668).

[4] = target: T3, cynomolgus monkey BDCA2 (full-length, …); experiment: direct binding FACS, conditioned medium on CHO cells co-expressing cynomolgus BDCA2 and FcεRIγ; column C (midpoint) of the printed 4-P fit, X in ng/ml; A 3.13, B 0.874, D 71.9, R^2 0.998
Method: as §2

[5] = target: T2, human BDCA2 (full-length, cell surface); experiment: direct binding FACS, conditioned medium on CHO cells co-expressing human BDCA2 and FcεRIγ; column C (midpoint) of the printed 4-P fit, X in ng/ml; A 3.85, B 0.622, D 97.2, R^2 0.999
Method: as §2

[6] = target: T3, cynomolgus monkey BDCA2 (full-length, …); experiment: direct binding FACS, conditioned medium on CHO cells co-expressing cynomolgus BDCA2 and FcεRIγ; column C (midpoint) of the printed 4-P fit, X in ng/ml; A 1.62, B 0.79, D 41.8, R^2 1; the fit is extrapolated: the highest point drawn is at about 4000 ng/ml with MFI about 16, no plateau
Method: as §2

[7] = target: T1, monomeric huBDCA2 ectodomain; experiment: Octet, monomeric huBDCA2
Method: as §1

Kd [1] [nM]	koff [1] [s⁻¹]	kon [1] [M⁻¹ s⁻¹]	Kd [2] [nM]	koff [2] [s⁻¹]	kon [2] [M⁻¹ s⁻¹]	EC50 [3] [µg/mL]	EC50 [4] [µg/mL]	EC50 [5] [µg/mL]	EC50 [6] [µg/mL]	binding result [7]	Binder
0.548	0.000398	727000	0.744	0.000408	549000	0.2	0.21	–	–	–	hu24F4 H4/L1 (C95S) (antibody, V domains shown, Human IgG1/kappa; also called 24F4-H4/L1 (YL740/YL746); 24F4S) VH: DVQLVESGGGLVKPGGSLRLSCAASGFTFSTYTMSWVRQAPGKGLEWVATISPGDSFGYYYPDSVQGRFTISRDNAKNSLYLQMNSLRAEDTAVYYCTRDIYYNYGAWFAYWGQGTLVTVSS VL: DIQLTQSPSSLSASVGDRVTITCKASQSVDYDGDSYMNWYQQKPGKAPKLLIYAASTLESGVPSRFSGSGSGTDFTLTISSLQPEDFATYYCQQSNEDPRTFGQGTKVEIK
–	–	–	13	0.00586	452000	–	–	0.984	7.67	–	hu24F4 H3/L1 (antibody, V domains shown, Humanized variant, human IgG1/kappa, conditioned medium of 293E cells; also called H3 series of hu24F4) VH: EVQLVESGGGLVKPGGSLRLSCAASGFTFSTYTMSWVRQAPGKGLEWVSTISPGDSFGYYYPDSVQGRFTISRDNAKNSLYLQMNSLRAEDTAVYYCARDIYYNYGAWFAYWGQGTLVTVSS VL: DIQLTQSPSSLSASVGDRVTITCKASQSVDYDGDSYMNWYQQKPGKAPKLLIYAASTLESGVPSRFSGSGSGTDFTLTISSLQPEDFATYYCQQSNEDPRTFGQGTKVEIK
–	–	–	–	–	–	–	–	–	–	binds	hu24F4 H5/L1 C95T (antibody, human IgG1, V domains shown, Heavy chain pYL747 with light chain pYL750; human IgG1/kappa; also called H5/L1 C95T variant) VH: DVQLVQSGGGLVKPGGSLRLSCAASGFTFSTYTMSWVRQAPGKGLEWVATISPGDSFGYYYPDSVQGRFTISRDNAKNSLYLQMNRLRAEDTAVYYCTRDIYYNYGAWFAYWGRGTLVTVSS VL: DIQLTQSPSSLSASVGDRVTITCKASQSVDYDGDSYMNWYQQKPGKAPKLLIYAASTLESGVPSRFSGSGSGTDFTLTISSLQPEDFATYYCQQTNEDPRTFGQGTKVEIK
